Changes are numbered by the printed parent chain.
B1: ABT2-65 (other)
VH: EVQLLESGGGLVQPGGSLRLSCAASGFTFEDYQMGWVRQAPGKGLEWVSSISAMGNRTYYADSVKGRFTISRDDSKNTLYLQMNSLRAEDTAVYYCAKNLVRTQSKMWMFDYWGQGTLVTVSS
B2: ABT2-65-47 (other)
VH: B1 VH with N99W, L100R, V101K, M107L, W108G, M109Y
notes: VH dAb
B3: ABT2-65-113 (other)
VH: B1 VH with E30V, D31Q, K98Q, T103L, Q104G, S105R, K106S, M107R
notes: VH dAb
B4: ABT2-65-140 (other)
VH: B1 VH with K98E, R102K, T103I, Q104S, S105R, K106R, M107H
notes: VH dAb
B5: ABT2-65-79 (other)
VH: B1 VH with A23V, E89G, K98Q, T103L, Q104G, S105R, K106S, M107R, L118M
notes: VH dAb
B6: ABT2-65-6 (other)
VH: B1 VH with K98Q
notes: VH dAb
B7: ABT2-65-89 (other)
VH: B1 VH with A23V, K98Q, L100M, T103L, Q104G, S105R, K106S, M107R
notes: VH dAb
B8: ABT2-65-7 (other)
VH: B1 VH with M54T, K98Q, Q104R, S105I
notes: VH dAb
B9: ABT2-65-154 (other)
VH: B1 VH with Y59H, K98Q, T103I, Q104R, S105R, K106T, M107K
notes: VH dAb
B10: ABT2-65-166 (other)
VH: B1 VH with N56G, D74N, K98Q, T103L, Q104G, S105R, K106S, M107R
B11: ABT2-65-8 (other)
VH: B1 VH with K98Q, T103M, Q104D, K106R, M107R
B12: ABT2-65-85 (other)
VH: B1 VH with L5M, A23V, T69A, E89K, K98Q, T103L, Q104G, S105R, K106S, M107R
notes: VH dAb
B13: ABT2-65-82 (other)
VH: B1 VH with Q13R, A23V, S75P, K98Q, T103L, Q104G, S105R, K106S, M107R
notes: VH dAb
B14: ABT2-65-81 (other)
VH: B1 VH with A23V, D31E, K98Q, T103L, Q104G, S105R, K106S, M107R
notes: VH dAb
B15: ABT2-65-48 (other)
VH: B1 VH with N99W, L100Q, V101M, M107L, W108G, M109Y
notes: VH dAb
B16: ABT2-61 (other)
VL: DIQMTQSPSSLSASVGDRVTITCRASQSIRVFLSWYQQKPGKAPKLLIYNASHLQSGVPSRFSGSGSGTDFTLTISSLQPEDFATYYCQQRALYPTTFGQGTKVEIKR
notes: VK dAb
B17: ABT2-62 (other)
VL: B16 VL with R30Q, V31T, F32Y, H53N
notes: VK dAb

Tests used:
human IL-1β [1] = target: T1, human IL-1β (human, UniProt P01584 117-269); test: cell-based or functional assay
human IL-1β [2] = target: T1, human IL-1β; test: IC50 column of Table 63; receptor binding assay presumed

Binder	ND50 (human IL-1β [1]) [nM]	IC50 (human IL-1β [2]) [nM]
B1	505	100
B2	80	20
B3	3	3.3
B4	1	2
B5	2	6
B6	> 1000	30
B7	2	10
B8	200	30
B9	1.5	3
B10	4	4
B11	3	10
B12	2	7
B13	2	8
B14	2	10
B15	80	20
B16	> 1000	1000
B17	> 1000	1000
